Test [1] deals with T1, sIL-6R (soluble IL-6 receptor; SBH Sciences) (human, UniProt P08887 20-365).
T1 construct: also called human IL-6R
T1 sequence: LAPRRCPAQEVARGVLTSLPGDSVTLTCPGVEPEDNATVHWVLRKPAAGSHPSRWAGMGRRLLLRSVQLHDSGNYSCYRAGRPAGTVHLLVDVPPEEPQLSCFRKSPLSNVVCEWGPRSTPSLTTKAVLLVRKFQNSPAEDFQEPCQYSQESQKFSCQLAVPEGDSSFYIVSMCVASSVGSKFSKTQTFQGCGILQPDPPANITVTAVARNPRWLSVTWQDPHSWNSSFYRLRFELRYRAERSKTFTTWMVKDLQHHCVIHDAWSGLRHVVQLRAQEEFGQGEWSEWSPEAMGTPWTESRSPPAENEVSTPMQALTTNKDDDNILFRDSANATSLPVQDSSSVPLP
Briefly: SPR (BIAcore 3000), antibody on chip, sIL-6R analyte, 25 C. The procedure: (§1) All SPR measurements were performed on a BIAcore 3000 instrument (GE Biosciences, Piscataway, N.J.). BIAcore Software-BIAcore 3000 Control Software V3.2 was used for the operation and control of the BIAcore 3000 instrument. BiaEvaluation Software V4.1 was used for the analysis of SPR data from the BIAcore 3000 instrument and data was plotted using Graph Pad Prism Software Version 5. […] The indicated antibodies were used as the ligand for the construction of the reference channel of the chip. […] Each sample was injected for 3 min at a flow rate of 30 μL/min to allow for binding to chip-bound antibody. Next, binding buffer without analyte was sent over the chip at the same flow rate to allow for dissociation of bound analyte. After 500s, remaining bound analyte was removed by injecting regeneration solution (1M Formic acid). Data was analyzed by using the Kinetics Wizard and the manual fitting programs that are both included with the BiaEvaluation Software V4.1.

Test [2] addresses T1, sIL-6R (soluble IL-6 receptor; SBH …). The test is described as above. As for the experimental part: as §1
The source holds these as a separate data set.

Residue numbers refer to the chain shown, from its start. Read-outs that look alike come from different tables or passages of the source.

B1: 5# (antibody, human IgG1, kappa, V domains shown)
VH: QVQLQESGPGLVRPSQTLSLTCTVSGYSITSDHAWSWVRQPPGRGLEWIGFISYSGITTYNPSLKSRVTMLRDTSKNQFSLRLSSVTAADTAVYYCARSLARTTAMDYWGQGSLVTVSS
VL: DIQMTQSPSSLSASVGDRVTITCRASQDISSYLNWYQQKPGKAPKLLIYYTSRLHSGVPSRFSGSGSGTDFTFTISSLQPEDIATYYCQQGNTLPYTFGQGTKVEIKR
notes: also called Sample # 5
With B1, in test [1], the Kd came out at 0.882 nM, the “Relative Affinity” value is 1.5 fold vs 25 (Tocilizumab), the koff amounted to 0.000234 s⁻¹ and the kon turned out to be 266000 M⁻¹ s⁻¹.

B2: 232# (antibody, human IgG1, kappa, V domains shown)
VH: B1 VH with F51Y, I57M, T58I, S99T, T103M
VL: B1 VL
For the molecule B2, in test [2], the Kd amounted to 0.319 nM, the “Relative Affinity” value was 9.9 fold vs 25 (Tocilizumab), the koff was 4.81e-05 s⁻¹ and the kon turned out to be 151000 M⁻¹ s⁻¹.

B3: 234# (antibody, human IgG1, kappa, V domains shown)
VH: B1 VH with F51Y, I57M, S99C, T103M
VL: B1 VL
For B3, in test [2], the Kd was found to be 0.37 nM, the “Relative Affinity” value was 8.5 fold vs 25 (Tocilizumab), the koff came to 5.69e-05 s⁻¹ and the association rate constant (kon) turned out to be 154000 M⁻¹ s⁻¹.

B4: 224# (antibody, human IgG1, kappa, V domains shown)
VH: B1 VH with F51Y, I57M, S99C
VL: B1 VL
With B4, in test [2], the affinity, expressed as Kd, was 0.5 nM; the “Relative Affinity” value is 6.3 fold vs 25 (Tocilizumab); the koff amounted to 7.99e-05 s⁻¹; the kon came to 160000 M⁻¹ s⁻¹.

B5: 242# (antibody, human IgG1, kappa, V domains shown)
VH: B1 VH with F51Y, I57M, T58I, T103M, M106I, Y108F
VL: B1 VL with Q89G, T93R
notes: also called Sample # 242
For the molecule B5, in test [2], the equilibrium dissociation constant (Kd) was found to be 1.24 nM, the “Relative Affinity” value was 2.6 fold vs 25 (Tocilizumab), the koff stood at 8.71e-05 s⁻¹ and the kon is 70200 M⁻¹ s⁻¹.

B6: 226# (antibody, human IgG1, kappa, V domains shown)
VH: B1 VH with F51Y, I57M, T58I, S99C, T103A
VL: B1 VL
On to B6, for which, in test [2], the dissociation constant (Kd) is 0.102 nM, the “Relative Affinity” value is 31 fold vs 25 (Tocilizumab), the koff turned out to be 1.6e-05 s⁻¹ and the association rate constant (kon) was 156000 M⁻¹ s⁻¹.

B7: 241# (antibody, human IgG1, kappa, V domains shown)
VH: B1 VH with F51Y, I57M, S99C, T103M, M106I, Y108F
VL: B1 VL with Q89G, T93R
Turning to B7, in test [2], the affinity, expressed as Kd, was 0.202 nM; the “Relative Affinity” value is 15.6 fold vs 25 (Tocilizumab); the koff turned out to be 3.61e-05 s⁻¹; the kon is 179000 M⁻¹ s⁻¹.

B8: 229# (antibody, human IgG1, kappa, V domains shown)
VH: B1 VH with F51Y, I57M, T58I, T103M, M106I, Y108F
VL: B1 VL
Turning to B8, in test [2], binding was put at a Kd of 0.605 nM, the “Relative Affinity” value is 5.2 fold vs 25 (Tocilizumab), the koff amounted to 7.49e-05 s⁻¹ and the kon is 124000 M⁻¹ s⁻¹.

B9: 227# (antibody, human IgG1, kappa, V domains shown)
VH: B1 VH with F51Y, I57M, T58I, T103A
VL: B1 VL
notes: also called Sample # 227
In the case of B9, in test [2], the Kd stood at 0.477 nM, the “Relative Affinity” value is 6.6 fold vs 25 (Tocilizumab), the dissociation rate constant (koff) was 6.9e-05 s⁻¹ and the kon turned out to be 144000 M⁻¹ s⁻¹.

B10: 240# (antibody, human IgG1, kappa, V domains shown)
VH: B1 VH with F51Y, I57M, T58I, T103A
VL: B1 VL with Q89G, T93R
notes: also called Sample # 240
In the case of B10, in test [2], the Kd stood at 0.15 nM, the “Relative Affinity” value is 21.1 fold vs 25 (Tocilizumab), the koff is 2.3e-05 s⁻¹ and the on-rate (kon) is 154000 M⁻¹ s⁻¹.

B11: 239# (antibody, human IgG1, kappa, V domains shown)
VH: B1 VH with F51Y, I57M, T58I, S99C, T103A
VL: B1 VL with Q89G, T93R
Regarding B11, in test [2], the Kd stood at 0.164 nM, the “Relative Affinity” value is 19.3 fold vs 25 (Tocilizumab), the off-rate constant (koff) was determined as 2.36e-05 s⁻¹ and the kon was 144000 M⁻¹ s⁻¹.

B12: 236# (antibody, human IgG1, kappa, V domains shown)
VH: B1 VH with F51Y, I57M, S99C, T103A
VL: B1 VL
As for B12, in test [2], the Kd stood at 0.0829 nM, the “Relative Affinity” value was 38.1 fold vs 25 (Tocilizumab), the koff is 1.53e-05 s⁻¹ and the kon turned out to be 185000 M⁻¹ s⁻¹.

B13: 245# (antibody, human IgG1, kappa, V domains shown)
VH: B1 VH with F51Y, I57M, T58I, S99T, T103M
VL: B1 VL with Q89G, T93R
As to B13, in test [2], the affinity, expressed as Kd, was 0.25 nM; the “Relative Affinity” value was 12.6 fold vs 25 (Tocilizumab); the koff was 3.53e-05 s⁻¹; the kon worked out at 141000 M⁻¹ s⁻¹.

B14: 221# (antibody, human IgG1, kappa, V domains shown)
VH: B1 VH with F51Y, I57M, T58I, M106I, Y108F
VL: B1 VL with Q89G, T93R
Turning to B14, in test [2], binding was characterised by a dissociation constant (Kd) of 0.663 nM, the “Relative Affinity” value was 4.8 fold vs 25 (Tocilizumab), the koff was determined as 9.01e-05 s⁻¹ and the kon came to 136000 M⁻¹ s⁻¹.

B15: 233# (antibody, human IgG1, kappa, V domains shown)
VH: B1 VH with F51Y, I57M, T58I, S99T, M106I, Y108F
VL: B1 VL
Regarding B15, in test [2], the Kd came out at 0.387 nM, the “Relative Affinity” value was 8.2 fold vs 25 (Tocilizumab), the koff worked out at 5.75e-05 s⁻¹ and the kon is 149000 M⁻¹ s⁻¹.

B16: 235# (antibody, human IgG1, kappa, V domains shown)
VH: B1 VH with F51Y, I57M, T58I, S99T, T103M, M106I, Y108F
VL: B1 VL
As for B16, in test [2], binding was put at a Kd of 0.297 nM, the “Relative Affinity” value is 10.6 fold vs 25 (Tocilizumab), the koff is 3.81e-05 s⁻¹ and the on-rate constant (kon) was found to be 128000 M⁻¹ s⁻¹.

B17: 243# (antibody, human IgG1, kappa, V domains shown)
VH: B1 VH with F51Y, I57M, T58I, S99C, M106I, Y108F
VL: B1 VL with Q89G, T93R
As to B17, in test [2], the Kd was found to be 0.273 nM, the “Relative Affinity” value was 11.6 fold vs 25 (Tocilizumab), the koff was determined as 1.94e-05 s⁻¹ and the kon is 71000 M⁻¹ s⁻¹.

B18: 228# (antibody, human IgG1, kappa, V domains shown)
VH: B1 VH with F51Y, I57M, S99C, T103M, M106I, Y108F
VL: B1 VL
notes: also called Sample # 228
On to B18, for which, in test [2], the Kd amounted to 0.204 nM, the “Relative Affinity” value is 15.5 fold vs 25 (Tocilizumab), the koff amounted to 3.04e-05 s⁻¹ and the on-rate constant (kon) stood at 149000 M⁻¹ s⁻¹.

B19: 225# (antibody, human IgG1, kappa, V domains shown)
VH: B1 VH with F51Y, I57M, T58I, S99C
VL: B1 VL
Regarding B19, in test [2], binding was characterised by a dissociation constant (Kd) of 0.645 nM, the “Relative Affinity” value is 4.9 fold vs 25 (Tocilizumab), the koff is 0.000105 s⁻¹ and the kon was 163000 M⁻¹ s⁻¹.

B20: 222# (antibody, human IgG1, kappa, V domains shown)
VH: B1 VH with F51Y, I57M, T58I, S99C, T103M
VL: B1 VL with Q89G, T93R
notes: also called Sample # 222
On to B20, for which, in test [2], the Kd was determined as 0.286 nM, the “Relative Affinity” value was 11 fold vs 25 (Tocilizumab), the koff turned out to be 3.66e-05 s⁻¹ and the kon stood at 128000 M⁻¹ s⁻¹.

B21: 223# (antibody, human IgG1, kappa, V domains shown)
VH: B1 VH with F51Y, I57M, T58I, S99C, T103M, M106I, Y108F
VL: B1 VL with Q89G, T93R
notes: also called Sample # 223
Turning to B21, in test [2], the Kd stood at 0.368 nM, the “Relative Affinity” value is 8.6 fold vs 25 (Tocilizumab), the koff turned out to be 4.91e-05 s⁻¹ and the kon turned out to be 133000 M⁻¹ s⁻¹.

B22: 230# (antibody, human IgG1, kappa, V domains shown)
VH: B1 VH with F51Y, I57M, T58I, S99C, M106I, Y108F
VL: B1 VL
notes: also called Sample # 230
In the case of B22, in test [2], binding was characterised by a dissociation constant (Kd) of 0.448 nM, the “Relative Affinity” value is 7.1 fold vs 25 (Tocilizumab), the koff amounted to 6.15e-05 s⁻¹ and the kon came to 137000 M⁻¹ s⁻¹.

B23: 246# (antibody, human IgG1, kappa, V domains shown)
VH: B1 VH with F51Y, I57M, T58I, S99T, M106I, Y108F
VL: B1 VL with Q89G, T93R
On to B23, for which, in test [2], the Kd is 0.0789 nM, the “Relative Affinity” value was 40.1 fold vs 25 (Tocilizumab), the koff was 9.86e-06 s⁻¹ and the kon was found to be 125000 M⁻¹ s⁻¹.

B24: 238# (antibody, human IgG1, kappa, V domains shown)
VH: B1 VH with F51Y, I57M, T58I, S99C
VL: B1 VL with Q89G, T93R
Regarding B24, in test [2], the Kd came out at 0.111 nM, the “Relative Affinity” value is 28.5 fold vs 25 (Tocilizumab), the koff is 1.5e-05 s⁻¹ and the kon came out at 135000 M⁻¹ s⁻¹.

B25: 244# (antibody, human IgG1, kappa, V domains shown)
VH: B1 VH with F51Y, S99T, T103M, M106I, Y108F
VL: B1 VL with Q89G, T93R
As for B25, in test [2], the dissociation constant (Kd) was 0.166 nM, the “Relative Affinity” value was 19 fold vs 25 (Tocilizumab), the koff is 2.33e-05 s⁻¹ and the on-rate (kon) is 140000 M⁻¹ s⁻¹.

One may read the Kd as the concentration at which binding is half-saturated. Lower therefore signals higher affinity. One may read the koff as the first-order rate constant of dissociation. Low values mean a long-lived complex, high ones a short-lived complex. Usually kon stands for the second-order rate constant of association. A high value points to fast association.

These data come from US20190315854A1 (BEIJING VDJBIO, published 2019).
